The results in this text go back to US20070066551, “Aptamer medicinal chemistry” (published 2007).

Common to all, as to settings: label: 5'-32P
The target of data set [1] is T1, IL-23 (full length) (Homo sapiens, UniProt Q9NPF7;P29460 Q9NPF7:20-189,P29460:23-328). In words: filter; PBS without Ca/Mg, 0.1 mg/mL BSA, RT 30 min; 13 nM in DPBS with Ca/Mg (Table 5). The source says:
(§1) A three-layer filtration medium was used, consisting (from bottom to top) of Protran nitrocellulose (Schleicher & Schuell), Hybond-P nylon (Amersham Biosciences) and GB002 gel blot paper (Schleicher & Schuell). RNA that is bound to protein is captured on the nitrocellulose filter, whereas the non-protein bound RNA is captured on the nylon filter. The gel blot paper was included simply as a supporting medium for the other filters. Following filtration, the filter layers were separated, dried and exposed on a phosphor screen (Amersham Biosciences, Piscataway, N.J.) and quantified using a Storm 860 Phosphorimager® blot imaging system (Amersham Biosciences).
A set of ARC979 (SEQ ID NO 1) derivative aptamers introducing single phosphorothioate substitutions (Glen Research, Sterling, Va.) were chemically synthesized by standard synthesis techniques. In each set of derivatives, single phosphorothioate substitutions were systematically introduced at each internucleotide linkage position resulting in each derivative within one set having an aptamer with a phosphorothioate substitution at a different internucleotide position. These derivatives were gel purified and assayed for IL-23 binding, using the dot blot assay described above under the following binding reaction conditions: 1×PBS (without Ca⁺⁺ or Mg⁺⁺) plus 0.1 mg/mL BSA, for a 30 minute incubation at room temperature. […]

In data set [2] the target is T1, IL-23 (full length). Put plainly: filter; DPBS with Ca/Mg, BSA, RT; parent 3.7 nM.
Text: as §1
The dot blot binding assay previously described was used to characterize the relative potency of the majority of the aptamers synthesized as compared to the parent molecule, ARC1386. […] KD values were calculated by fitting the equation y=(max/(1+K/protein))+yint using KaleidaGraph (KaleidaGraph v. 3.51, Synergy Software).

The target in data set [3] is T2, von Willebrand Factor (vWF) (UniProt P04275 P04275:764-2813). Put plainly: filter; DPBS with Ca/Mg, 0.1 mg/mL BSA, 24 C.
Data set [4] deals with T2, von Willebrand Factor (vWF). In words: filter; DPBS with Ca/Mg, 0.1 mg/mL BSA, 24 C.
Text: as §1
A set of ARC1172 (SEQ ID NO 3) derivative aptamers introducing single phosphorothioate substitutions (Glen Research, Sterling, Va.) were chemically synthesized using standard synthesis techniques. In each set of derivatives, single phosphorothioate substitutions were systematically introduced at each internucleotide linkage position resulting in each derivative set having an aptamer with a phosphorothioate substitution at a different internucleotide position. […] KD values for the ARC1172 derivative aptamers were calculated by fitting the equation y=(max/(1+K/protein))+yint using KaleidaGraph (KaleidaGraph v. 3.51, Synergy Software).
This is another data set of the same source.

T1 sequence (Q9NPF7 20-189, chain 1 of 2): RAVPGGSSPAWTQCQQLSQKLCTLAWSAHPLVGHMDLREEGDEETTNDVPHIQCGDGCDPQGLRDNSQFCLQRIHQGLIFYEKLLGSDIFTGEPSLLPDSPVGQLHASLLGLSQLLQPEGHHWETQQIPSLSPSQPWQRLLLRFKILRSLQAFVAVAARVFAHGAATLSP
T1 sequence (P29460 23-328, chain 2 of 2): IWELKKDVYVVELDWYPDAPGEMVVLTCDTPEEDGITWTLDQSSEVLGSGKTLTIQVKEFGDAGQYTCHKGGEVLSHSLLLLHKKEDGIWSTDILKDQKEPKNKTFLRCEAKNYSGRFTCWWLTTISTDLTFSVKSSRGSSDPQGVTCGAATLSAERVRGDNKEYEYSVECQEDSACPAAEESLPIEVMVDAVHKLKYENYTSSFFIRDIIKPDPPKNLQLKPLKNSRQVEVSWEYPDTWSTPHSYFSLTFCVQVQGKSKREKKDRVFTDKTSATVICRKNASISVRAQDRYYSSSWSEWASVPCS

In the data set with IL-23 (full length) [1], ACAGGCAAGUAAUUGGGGAGUGCGGGCGGGGUGU (mixed, 2'-deoxy purines, 2'-OMe pyrimidines (dRmY)) [ARC979] showed a Kd of 90 nM. Take ACAGGCAAGTAAUUGGGGAGUGCGGGCGGGGUGU (mixed, dRmY; 2'-deoxy dihydrouridine at 10; 3'-idT (last t of SEQ)) [ARC1709]: the Kd with IL-23 (full length) [2] came to 2.8 nM. In the case of ACAGGCAAGUAAUUGGGGAGUGCGGGCGGGGTGU (mixed, dRmY; 2'-deoxy dihydrouridine at 32; 3'-idT (last t of SEQ)) [ARC1713], in the data set with IL-23 (full length) [2], the Kd turned out to be 2.2 nM. In data set [3], GCGUGCAGUGCCUUCGGCCGTGCGGTGCCUCCGUCACGC (mixed, multiple 2'-OMe substitutions as in Table 3; 3'-idT (last t of SEQ)) [ARC1361] gave a Kd of 7.9 nM.

B1: ARC1368 (mixed)
mixed: GCGUGCAGUGCCUUCGGCCGTGCGGTGCCUCCGUCACGC
modifications: as ARC1361 plus PS between 20 and 21 (as printed, mG-s-T); 3'-idT (last t of SEQ)
Consider B1, for which the Kd in data set [3] came to 1.8 nM.

For GGCGTGCAGTGCCTTCGGCCGTGCGGTGCCTCCGTCACGCC (ssDNA, 3'-idT (last t of SEQ)) [ARC1172 w/3T], the Kd in data set [4] is 2 nM. In data set [3], GGCGTGCAGTGCCTTCGGCCGTGCGGTGCCTCCGTCACGCC (ssDNA, 3'-idT as printed in Table 3) [ARC1172] showed a dissociation constant Kd of 2 nM.
